B1: NS3/4a PI (protein)
chain: MAPITAYAQQTRGLLGCIITSLTGRDKNQVEGEVQIVSTAAQTFLATCINGVCWTVYHGAGTRTIASPKGPVIQMYTNVDQDLVGWPAPQGSRSLTPCTCGSSDLYLVTRHADVIPVRRRGDSRGSLLSPRPISYLKGSSGGPLLCPAGHAVGIFRAAVCTRGVAKAVDFIPVENLETTMRSPVFTDNSSPPVVPQSFQVAHLHAPTGSGKSTKVPAAYAAQGYKVLVLNPSVAATLGFGAYMSKAHGIDPNIRTGVRTITTGSPITYSTYGKFLADGGCSGGAYDIIICDECHSTDATSILGIGTVLDQAETAGARLVVLATATPPGSVTVPHPNIEEVALSTTGEIPFYGKAIPLEVIKGGRHLIFCHSKKKCDELAAKLVALGINAVAYYRGLDVSVIPPIGDVVVVATDALMTGYTGDFDSVIDCNTCVTQTVDFSLDPTFTIETITLPQDAVSRTQRRGRTGRGKPGIYRFVAPGERPSGMFDSSVLCECYDAGCAWYELTPAETTVRLRAYMNTPGLPVCQDHLEFWEGVFTGLTHIDAHFLSQTKQSGENLPYLVAYQATVCARAQAPPPSWDQMWKCLIRLKPTLHGPTPLLYRLGAVQNEITLTHPVTKYIMTCMSADLEVVTSTWVLVGGVLAALAAYCLSTGCVVIVGRVVLSGKPAIIPDREVLYREFDEMEEC
On to B1, for which the “proteolytic cleavage (SDS-PAGE and anti-hSOD Western blot after 30 minutes at room temperature)” value with MEFA 7.2 was “MEFA 7.2, on the other hand, showed no degradation (lane 6, FIGS. 14A and 14B)”; with MEFA 7.1 it was “the NS3/4a cleaved MEFA 7.1 (lane 5, FIGS. 14A and 14B)”.
